Experimental data from patent US20200199241A1 (Chugai, published 2020).

T1: FcγRIIb (human, UniProt P31994 43-217, limits assumed)
T1 construct: SPR analyte; also called FcγIIB; CD32
T1 sequence: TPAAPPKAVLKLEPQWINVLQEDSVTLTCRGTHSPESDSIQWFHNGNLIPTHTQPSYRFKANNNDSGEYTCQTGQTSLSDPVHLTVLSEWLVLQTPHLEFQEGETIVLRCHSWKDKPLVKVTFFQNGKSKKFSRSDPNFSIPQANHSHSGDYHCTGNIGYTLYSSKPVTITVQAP

T2: FcγRIIa type R (human, UniProt P12318 36-217)
T2 construct: SPR analyte; also called FcγRIIaR; FcγRIIa(R)
T2 chain: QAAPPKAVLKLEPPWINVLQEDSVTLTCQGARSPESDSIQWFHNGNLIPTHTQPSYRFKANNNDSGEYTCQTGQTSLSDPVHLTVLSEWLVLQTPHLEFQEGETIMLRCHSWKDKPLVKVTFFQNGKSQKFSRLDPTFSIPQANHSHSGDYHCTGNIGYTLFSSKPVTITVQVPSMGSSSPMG

T3: FcγRIIa type H (human, UniProt P12318 36-217)
T3 construct: SPR analyte; also called FcγRIIaH
T3 sequence: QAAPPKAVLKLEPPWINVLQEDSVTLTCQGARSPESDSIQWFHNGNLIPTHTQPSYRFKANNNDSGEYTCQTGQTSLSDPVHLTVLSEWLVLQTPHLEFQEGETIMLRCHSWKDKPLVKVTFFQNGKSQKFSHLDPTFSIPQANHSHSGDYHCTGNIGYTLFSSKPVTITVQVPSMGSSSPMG

T4: human FcγRIIa(H) (human, UniProt P12318 36-217)
T4 construct: also called hFcgRIIa(H); FcγRIIa type H
T4 sequence: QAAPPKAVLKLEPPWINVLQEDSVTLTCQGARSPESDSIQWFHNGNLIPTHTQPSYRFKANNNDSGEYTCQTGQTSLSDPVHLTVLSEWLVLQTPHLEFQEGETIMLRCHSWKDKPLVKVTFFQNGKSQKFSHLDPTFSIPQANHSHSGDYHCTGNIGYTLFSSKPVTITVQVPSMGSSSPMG

T5: human FcγRIIa(R) (human, UniProt P12318 36-217)
T5 construct: also called hFcgRIIa(R); FcγRIIa type R
T5 chain: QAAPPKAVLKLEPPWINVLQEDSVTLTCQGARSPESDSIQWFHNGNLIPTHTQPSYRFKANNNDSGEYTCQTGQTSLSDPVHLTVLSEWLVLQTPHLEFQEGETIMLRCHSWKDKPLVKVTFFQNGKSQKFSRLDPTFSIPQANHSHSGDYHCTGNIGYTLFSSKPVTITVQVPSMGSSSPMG

T6: FcγRIIb (human, UniProt P31994 43-217, limits assumed)
T6 construct: also called FcgRIIb; FcγIIB
T6 sequence: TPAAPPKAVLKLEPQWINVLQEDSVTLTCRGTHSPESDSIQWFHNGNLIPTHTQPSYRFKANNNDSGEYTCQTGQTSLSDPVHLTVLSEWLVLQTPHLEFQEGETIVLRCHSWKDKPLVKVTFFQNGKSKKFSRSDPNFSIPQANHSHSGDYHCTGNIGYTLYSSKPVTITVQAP

T7: FcγRIIa type H (human, UniProt P12318 36-217)
T7 construct: also called FcγRIIaH; FcγRIIH
T7 sequence: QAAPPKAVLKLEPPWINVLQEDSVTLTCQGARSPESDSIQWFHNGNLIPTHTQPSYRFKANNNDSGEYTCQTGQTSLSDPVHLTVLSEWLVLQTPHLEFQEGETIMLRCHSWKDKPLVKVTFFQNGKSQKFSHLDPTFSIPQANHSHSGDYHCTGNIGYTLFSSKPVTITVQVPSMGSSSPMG


Key:
[1] = target: T1, FcγRIIb; assay: SPR (Biacore), antibody captured, FcγR analyte
[2] = target: T2, FcγRIIa type R; assay: SPR (Biacore), antibody captured, FcγR analyte
[3] = target: T8, FcγRIa (human, UniProt P12314 16-292, limits assumed); assay: SPR (Biacore), antibody captured, FcγR analyte
T8 construct: SPR analyte; also called CD64
T8 sequence (P12314 16-292 limits assumed): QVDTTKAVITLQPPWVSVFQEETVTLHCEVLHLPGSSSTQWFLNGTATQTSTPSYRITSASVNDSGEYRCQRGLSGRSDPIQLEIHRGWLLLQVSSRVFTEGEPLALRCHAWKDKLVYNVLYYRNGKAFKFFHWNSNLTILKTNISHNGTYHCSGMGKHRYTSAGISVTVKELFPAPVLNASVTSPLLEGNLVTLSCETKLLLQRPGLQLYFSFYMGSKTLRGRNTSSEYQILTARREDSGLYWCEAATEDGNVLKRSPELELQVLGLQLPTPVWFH

[4] = target: T3, FcγRIIa type H; assay: SPR (Biacore), antibody captured, FcγR analyte
[5] = target: T2, FcγRIIa type R; assay: ratio of SPR KDs; stronger receptor here FcγRIIaR; reference IL6R-B3/IL6R-L (FcγRIIaH)
Description: Furthermore, KD(IIaR)/KD(IIb) and KD(IIaH)/KD(IIb) in the table respectively represent the value obtained by dividing the KD value of each variant for FcγRIIaR by the KD value of each variant for FcγRIIb, and the value obtained by dividing the KD value of each variant for FcγRIIaH by the KD value of each variant for FcγRIIb. KD(IIb) of the parent polypeptide/KD(IIb) of the altered polypeptide refers to the value obtained by dividing the KD value of the parent polypeptide for FcγRIIb by the KD value of each variant for FcγRIIb.

[6] = target: T1, FcγRIIb; assay: ratio of SPR KDs; reference IL6R-B3/IL6R-L
[7] = target: T4, human FcγRIIa(H); assay: SPR, antibody captured by Protein L, human FcγR as analyte, pH 7.4, 25 C;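 further: biacore T100 or T200 with Protein L amine-coupled on a CM4 chip, FcγRs diluted in ACES saline with polysorbate 20, buffer-only injection as blank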
Protocol: (§1) Binding activity between the antibodies and human FcγRIa, FcγRIIa(H), FcγRIIa(R), FcγRIIb and FcγRIIIa(F) (hereinafter referred to as human FcγRs) was evaluated using the BIACORE™ T100 or T200 surface plasmon resonance system (GE Healthcare). The antibodies being tested were captured by Protein L (ACTIGEN® protein (Alltech)) that was immobilized in suitable amounts on the CM4 Sensor Chip (GE Healthcare) by amine coupling. Next, the diluted human FcγRs and a running buffer used as a blank were injected to allow interaction with the antibodies captured on the sensor chip. A buffer consisting of 20 mmol/L N-(2-acetamido)-2-aminoethanesulfonic acid (ACES), 150 mmol/L NaCl and 0.05% (w/v) polysorbate 20 (Tween 20®) (pH 7.4) was used for the running buffer, and this buffer was also used to dilute the human FcγRs. 10 mmol/L glycine-HCl (pH 1.5) was used to regenerate the sensor chip. All measurements were carried out at 25° C.

[8] = target: T9, human FcγRIIIa(V) (human, UniProt P08637 17-208, limits assumed); assay: as above
T9 construct: also called hFcgRIIIa(V); allotype V158
T9 sequence (P08637 other isoform, or with tags, fused parts or gaps limits assumed): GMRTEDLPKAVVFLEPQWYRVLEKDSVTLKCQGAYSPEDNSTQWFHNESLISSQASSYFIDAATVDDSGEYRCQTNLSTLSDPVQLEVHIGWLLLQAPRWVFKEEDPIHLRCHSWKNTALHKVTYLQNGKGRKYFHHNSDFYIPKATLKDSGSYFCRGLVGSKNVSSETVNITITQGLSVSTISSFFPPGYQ
Protocol: as §1

[9] = target: T5, human FcγRIIa(R); assay: as above
Protocol: as §1

[10] = target: T10, human FcγRIa (human, UniProt P12314 16-292, limits assumed); assay: as above
T10 construct: also called hFcgRIa; hFcgRI
T10 sequence (P12314 16-292 limits assumed): as the sequence (P12314 16-292 limits assumed) above
Protocol: as §1

[11] = target: T6, FcγRIIb; assay: SPR (Biacore), KD of IL6R-B3/IL6R-L divided by KD of the variant
[12] = target: T11, FcγRIIIa type V (human, UniProt P08637 17-208, limits assumed); assay: SPR (Biacore), FcγR over captured antibody
T11 construct: also called FcγRIIIaV; FcgRIIIaV
T11 sequence (P08637 other isoform, or with tags, fused parts or gaps limits assumed): as the sequence (P08637 other isoform, or with tags, fused parts or gaps limits assumed) above

[13] = target: T12, FcγRIa (human, UniProt P12314 16-292, limits assumed); assay: SPR (Biacore), FcγR over captured antibody
T12 construct: also called FcgRIa; CD64
T12 sequence (P12314 16-292 limits assumed): as the sequence (P12314 16-292 limits assumed) above

[14] = target: T6, FcγRIIb; assay: SPR (Biacore), FcγR over captured antibody
[15] = target: T7, FcγRIIa type H; assay: SPR (Biacore), FcγR over captured antibody

Row | Binder | KD(IIb) of the parent polypeptide/KD(IIb) of altered polypeptide [11] [fold] | Kd [12] [nM] | Kd [13] [nM] | Kd [14] [nM] | Kd [15] [nM] | also measured
1 | IL6R-BP152/IL6R-L (antibody, human IgG1) heavy: QVQLQESGPGLVKPSETLSLTCAVSGHSISHDHAWSWVRQPPGEGLEWIGFISYSGITNYNPSLQGRVTISRDNSKNTLYLQMNSLRAEDTAVYYCARSLARTTAMDYWGEGTLVTVSSASTKGPSVFPLAPSSKSTSGGTAALGCLVKDYFPEPVTVSWNSGALTSGVHTFPAVLQSSGLYSLSSVVTVPSSSLGTQTYICNVNHKPSNTKVDKKVEPKSCDKTHTCPPCPAPDYLGDDSVFLFPPKPKDTLMISRTPEVTCVVVDVSHEDPEVKFNWYVDGVEVHNAKTKPREEQDNSTYRVVSVLTVLHQDWLNGKEYKCKVSNAALPRPIEKTISKAKGQPREPQVYTLPPSRDELTKNQVSLTCLVKGFYPSDIAVEWESNGQPENNYKTTPPVLDSDGSFFLYSKLTVDKSRWQQGNVFSCSVMHEALHNHYTQESLSLSP light: DIQMTQSPSSLSASVGDRVTITCRASQDISSYLNWYQQKPGKAPKLLIYYTSRLHSGVPSRFSGSGSGTDFTFTISSLQPEDIATYYCQQGNTLPYTFGQGTKVEIK |  |  |  |  |  | Kd [1]: 41 nM; Kd [2]: 810 nM; Kd [3]: 73 nM; Kd [4]: 5600 nM; KD of the stronger of FcγRIIaR/FcγRIIaH binding of the variant / that of the parent polypeptide [5]: 1; KD(IIb) of the parent polypeptide/KD(IIb) of altered polypeptide [6]: 75
2 | antibody with VH3-IgG1-F1324 heavy chain and L(WT)-CK light chain (antibody, L234A/L235A on VH3-IgG1-F890; copies: 2 + 2) heavy: QVQLQESGPGLVKPSETLSLTCAVSGHSISHDHAWSWVRQPPGEGLEWIGFISYSGITNYNPSLQGRVTISRDNSKNTLYLQMNSLRAEDTAVYYCARSLARTTAMDYWGEGTLVTVSSASTKGPSVFPLAPSSKSTSGGTAALGCLVKDYFPEPVTVSWNSGALTSGVHTFPAVLQSSGLYSLSSVVTVPSSSLGTQTYICNVNHKPSNTKVDKKVEPKSCDKTHTCPPCPAPEAAGGPSVFLFPPKPKDTLYISRTPEVTCVVVDVSHEDPEVKFNWYVDGVEVHNAKTKPREEQYNSTYRVVSVLTVLHQDWLNGKEYKCKVSNKALPAPIEKTISKAKGQPREPQVYTLPPSRDELTKNQVSLTCLVKGFYPSDIAVEWESNGQPENNYKTTPPVLDSDGSFFLYSKLTVDKSRWQQGNVFSCSVMHEALHYHVTQKSLSLSP light: not shown |  |  |  |  |  | BINDING AMOUNT (RU) [7]: 6.97 RU; BINDING AMOUNT (RU) [8]: 39.5 RU; BINDING AMOUNT (RU) [9]: 9.1 RU; BINDING AMOUNT (RU) [10]: 227 RU
3 | IL6R-2B169/IL6R-L (antibody, human IgG1, IgG1; Fc variant of IL6R-B3; copies: 2 + 2) heavy: QVQLQESGPGLVKPSETLSLTCAVSGHSISHDHAWSWVRQPPGEGLEWIGFISYSGITNYNPSLQGRVTISRDNSKNTLYLQMNSLRAEDTAVYYCARSLARTTAMDYWGEGTLVTVSSASTKGPSVFPLAPSSKSTSGGTAALGCLVKDYFPEPVTVSWNSGALTSGVHTFPAVLQSSGLYSLSSVVTVPSSSLGTQTYICNVNHKPSNTKVDKKVEPKSCDKTHTCPPCPAPELLGGDSVFLFPPKPKDTLMISRTPEVTCVVVDVSHEDPEVKFNWYVDGVEVHNAKTKPREEQYNSTYRVVSVLTVLHQDWLNGKEYKCKISNKALPAPIEKTISKAKGQPREPQVYTLPPSRDELTKNQVSLTCLVKGFYPSDIAVEWESNGQPENNYKTTPPVLDSDGSFFLYSKLTVDKSRWQQGNVFSCSVMHEALHNHYTQESLSLSP light: DIQMTQSPSSLSASVGDRVTITCRASQDISSYLNWYQQKPGKAPKLLIYYTSRLHSGVPSRFSGSGSGTDFTFTISSLQPEDIATYYCQQGNTLPYTFGQGTKVEIK | 2.6 | 75000 | 25 | 1200 | 48000 | 
4 | IL6R-BP912/IL6R-L (antibody, human IgG1, IgG1; Fc variant of IL6R-B3; copies: 2 + 2) heavy: QVQLQESGPGLVKPSETLSLTCAVSGHSISHDHAWSWVRQPPGEGLEWIGFISYSGITNYNPSLQGRVTISRDNSKNTLYLQMNSLRAEDTAVYYCARSLARTTAMDYWGEGTLVTVSSASTKGPSVFPLAPSSKSTSGGTAALGCLVKDYFPEPVTVSWNSGALTSGVHTFPAVLQSSGLYSLSSVVTVPSSSLGTQTYICNVNHKPSNTKVDKKVEPKSCDKTHTCPPCPAPELLGGDSVFLFPPKPKDTLMISRTPEVTCVVVDVSHEDPEVKFNWYVDGVEVHNAKTKPREEQYNSTYRVVSVLTVLHQDWLNGKEYKCKVSNKALPRPIEKTISKAKGQPREPQVYTLPPSRDELTKNQVSLTCLVKGFYPSDIAVEWESNGQPENNYKTTPPVLDSDGSFFLYSKLTVDKSRWQQGNVFSCSVMHEALHNHYTQESLSLSP light: DIQMTQSPSSLSASVGDRVTITCRASQDISSYLNWYQQKPGKAPKLLIYYTSRLHSGVPSRFSGSGSGTDFTFTISSLQPEDIATYYCQQGNTLPYTFGQGTKVEIK | 2.1 | 78000 | 38 | 1500 | 38000 | 
5 | IL6R-BP121/IL6R-L (antibody, human IgG1, IgG1; Fc variant of IL6R-B3; copies: 2 + 2) heavy: QVQLQESGPGLVKPSETLSLTCAVSGHSISHDHAWSWVRQPPGEGLEWIGFISYSGITNYNPSLQGRVTISRDNSKNTLYLQMNSLRAEDTAVYYCARSLARTTAMDYWGEGTLVTVSSASTKGPSVFPLAPSSKSTSGGTAALGCLVKDYFPEPVTVSWNSGALTSGVHTFPAVLQSSGLYSLSSVVTVPSSSLGTQTYICNVNHKPSNTKVDKKVEPKSCDKTHTCPPCPAPELLGGDSVFLFPPKPKDTLMISRTPEVTCVVVDVSHEDPEVKFNWYVDGVEVHNAKTKPREEQYNSTYRVVSVLTVLHQDWLNGKEYKCKVSNQALPAPIEKTISKAKGQPREPQVYTLPPSRDELTKNQVSLTCLVKGFYPSDIAVEWESNGQPENNYKTTPPVLDSDGSFFLYSKLTVDKSRWQQGNVFSCSVMHEALHNHYTQESLSLSP light: DIQMTQSPSSLSASVGDRVTITCRASQDISSYLNWYQQKPGKAPKLLIYYTSRLHSGVPSRFSGSGSGTDFTFTISSLQPEDIATYYCQQGNTLPYTFGQGTKVEIK | 2.8 | 52000 | 11 | 1100 | 44000 | 
6 | IL6R-BP110/IL6R-L (antibody, human IgG1, IgG1; Fc variant of IL6R-B3; copies: 2 + 2) heavy: QVQLQESGPGLVKPSETLSLTCAVSGHSISHDHAWSWVRQPPGEGLEWIGFISYSGITNYNPSLQGRVTISRDNSKNTLYLQMNSLRAEDTAVYYCARSLARTTAMDYWGEGTLVTVSSASTKGPSVFPLAPSSKSTSGGTAALGCLVKDYFPEPVTVSWNSGALTSGVHTFPAVLQSSGLYSLSSVVTVPSSSLGTQTYICNVNHKPSNTKVDKKVEPKSCDKTHTCPPCPAPELLGGDSVFLFPPKPKDTLMISRTPEVTCVVVDVSNEDPEVKFNWYVDGVEVHNAKTKPREEQYNSTYRVVSVLTVLHQDWLNGKEYKCKVSNKALPAPIEKTISKAKGQPREPQVYTLPPSRDELTKNQVSLTCLVKGFYPSDIAVEWESNGQPENNYKTTPPVLDSDGSFFLYSKLTVDKSRWQQGNVFSCSVMHEALHNHYTQESLSLSP light: DIQMTQSPSSLSASVGDRVTITCRASQDISSYLNWYQQKPGKAPKLLIYYTSRLHSGVPSRFSGSGSGTDFTFTISSLQPEDIATYYCQQGNTLPYTFGQGTKVEIK | 2.1 | 64000 | 7.3 | 1500 | 47000 | 
